Type in all cases: biochemical
In assay [1] the target is T1, CAPN5 WT (Homo sapiens, UniProt O15484). Nature of the assay: FRET peptide proteolysis assay with CAPN5-WT. On the set-up: MBP (N). To be noted: for proteolysis of peptide substrate by CAPN5-WT (fluorescence): FRET peptide, calpain activity buffer, 37° C. The protocol: (§1) FIG. 2. Diagram of Assay. 10 uM of FRET substrates were added to a solution containing 2 mM DTT, 5 uM Calcium, and CAPN5 Buffer (20 mM Tris, 300 mM NaCl, pH 7.5) to a volume of 100 uL. The solution was pipetted into a 96 well plate in wells that contained 24 uM of CAPN5-WT, CAPN5-R243L, or no CAPN5. The fluorescence of each well was measured using a Tecan Infinite M200 Pro plate reader.
(§2) Peptide substrates dissolved in DMSO and H2O were incubated with WT CAPN5 at 37° C. in the presence or absence of calcium until a change in fluorescence was no longer detected. […] As expected, R243LCAPN5 (hyperactive) cleaved substrate fragments at a higher rate (FIG. 4). Inhibitor peptides were identified that serve as the lead compounds for optimization.
Proteolytic kinetics of CAPN5 is influenced by peptide length near its autoproteolytic site. Peptides substrates that were 7, 11, and 21 amino acids long were incubated in calpain activity buffer. The solution was brought to 37° C. CAPN5 was then added and fluorescence was measured. […] The kinetics data from the Michaelis-Menten and substrate inhibition equations are shown in a table (FIG. 12D).
(§3) Peptides were incubated in calpain activity buffer, and the solution was brought to 37° C. Calpain was added and fluorescence was measured. The fluorescence measured for the lead peptide, CAPN5p370-380, was plotted and lines were fit using the following substrate inhibition equation, Y=Vmax*X/(Km+X*(1+X/Ki)). […] The fluorescence measure for a previously published calpain-1 peptide, EPLFAERK (SEQ ID NO: 22), was plotted and lines were fit using the following Michaelis-Menten equation, Y=Vmax*X/(Km+X) (FIG. 13B). […] Kinetics data from the Michaelis-Menten and substrate inhibition equations are shown in a table (FIG. 13C).
Scanning modifications were made to the amino acids of the lead compound to make the bonds un-cleavable by CAPN5 (FIG. 18B). Despite modifications, the peptide still fit in the catalytic groove using docking predictions. N-terminal (EDANS) and C-terminal GLU-(DABCYL) FRET tags were added to the peptides for our standard CAPN5 assay and were dissolved in 70% DMSO (FIG. 18C). Peptides incubated for 15 minutes at various concentrations with 5 μg of MBP-CAPN5 WT. Modification of the amino acids slows the reaction rate. Data is plotted as initial velocity (uM/sec) versus peptide concentration fit to the substrate inhibition equation (FIG. 18D).
The CAPN5-370-80 peptide was modified (FIGS. 19A-19G) and the activity was evaluated (FIGS. 20A-20D). Scanning modifications were made to the amino acids of the peptide to make the bonds un-cleavable by CAPN5. The location of the modifications are denoted with circles N-terminal (EDANS) and C-terminal GLU-(DABCYL) FRET tags were added to the peptides for the standard CAPN5 assay and were dissolved in 70% DMSO. Peptides incubated for 15 minutes at various concentrations with 5 μg of MBP-CAPN5 WT in a buffer containing 20 mM Tris, 300 mM NaCl, 2 mM DTT, pH 7.5 to measure activity (FIG. 20C). Data is plotted as initial velocity (uM/sec) versus peptide concentration. Modification of the amino acids slows the reaction rate.

Assay [2] has as its target CAPN5-R243L (Homo sapiens, UniProt O15484, R243L). The experiment in a line: FRET peptide proteolysis assay with CAPN5-R243L. To be noted: hyperactive R243L mutant. The protocol:
as §1, §2

The target of assay [3] is T2, CAPN1 WT (Homo sapiens, UniProt P07384).
T2 sequence (P07384 1-714): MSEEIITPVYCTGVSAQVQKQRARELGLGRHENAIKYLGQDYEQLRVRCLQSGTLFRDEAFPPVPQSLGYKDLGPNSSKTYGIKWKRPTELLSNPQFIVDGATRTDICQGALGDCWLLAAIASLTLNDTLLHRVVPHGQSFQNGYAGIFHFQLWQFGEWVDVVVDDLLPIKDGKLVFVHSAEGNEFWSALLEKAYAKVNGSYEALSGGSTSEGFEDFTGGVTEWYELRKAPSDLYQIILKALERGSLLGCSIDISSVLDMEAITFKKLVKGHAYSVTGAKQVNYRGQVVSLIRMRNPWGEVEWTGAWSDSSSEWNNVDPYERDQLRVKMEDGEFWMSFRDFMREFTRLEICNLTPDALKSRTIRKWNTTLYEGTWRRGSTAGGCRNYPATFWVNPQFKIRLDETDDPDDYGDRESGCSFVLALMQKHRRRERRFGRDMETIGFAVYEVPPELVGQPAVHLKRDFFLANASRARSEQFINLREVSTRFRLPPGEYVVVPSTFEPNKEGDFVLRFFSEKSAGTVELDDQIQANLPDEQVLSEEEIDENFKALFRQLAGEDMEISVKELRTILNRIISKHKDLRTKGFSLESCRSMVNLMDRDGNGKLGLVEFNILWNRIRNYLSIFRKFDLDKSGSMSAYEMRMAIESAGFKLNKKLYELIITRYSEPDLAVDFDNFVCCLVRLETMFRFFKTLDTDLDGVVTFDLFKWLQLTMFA
Nature of the assay: Inhibition of CAPN1 WT proteolysis of EPLFAERK substrate. As for the experimental part: (§4) FIG. 15A: Various concentrations of SNJ-1945 were incubated in a reaction with 50 μM EPLFAERK (SEQ ID NO: 22) (a CAPN1 substrate) and CAPN1 WT in activity. Data is plotted for CAPN1 as initial velocity (μM/sec) versus SNJ-1945 concentration. Addition of 1 μM SNJ-1945 slows the initial reaction rate by 100%. FIG. 15B: CAPN1 WT was incubated with and without SNJ-1945 at increasing concentrations of EPLFAERK substrate (SEQ ID NO: 22). Data is plotted for CAPN1 as initial velocity (μM/sec) versus substrate concentration. FIG. 15C: Various concentrations of SNJ-1945 were incubated in a reaction with CAPN5p.370-80 and CAPN5 WT in an activity buffer. Data is plotted for CAPN5 as initial velocity (μM/sec) versus SNJ-1945 concentration. Only after addition of 100 μM SNJ-1945 did the initial reaction rate slow to 100%. FIG. 15D: CAPN5 WT was incubated with and without SNJ-1945 at increasing concentrations of CAPN5 p.370-80 substrate. Data is plotted for CAPN5 as initial velocity (μM/sec) versus substrate concentration.
Various concentrations of SNJ-1945 were incubated in a reaction with 50 μM EPLFAERK (a CAPN1 substrate) (SEQ ID NO: 22) and CAPN1 WT in activity. Addition of 1 μM SNJ-1945 slows the initial reaction rate by 100% (FIG. 15A). CAPN1 WT was incubated with and without SNJ-1945 at increasing concentrations of EPLFAERK substrate (SEQ ID NO: 22) (FIG. 15B). […]

Assay [4] has as its target T1, CAPN5 WT. The experiment in a line: Inhibition of CAPN5 WT proteolysis of CAPN5p.370-80 substrate. As to conditions: for effect of increasing substrate concentration on inhibition of CAPN5: increasing concentrations of CAPN5 p.370-80 substrate, with and without inhibitor. The protocol: as §4
FIGS. 16A-16B. […] First generation lead compound CAPN5 p.370-80 was modified using amide cyclization to generate a second generation competitive cyclic inhibitor. (FIG. 16A) Various concentrations of Cyclic CAPN5 p.370-80 were incubated in a reaction with CAPN5p.370-80 and CAPN5 WT in an activity buffer. Data is plotted for CAPN5 as initial velocity (μM/sec) versus Cyclic CAPN5 p.370-80 concentration. Addition of 10 μM Cyclic CAPN5 p.370-80 slows the initial reaction rate by 40%. (FIG. 16B) CAPN5 WT was incubated with and without 10 μM Cyclic CAPN5 p.370-80 at increasing concentrations of CAPN5 p.370-80 substrate. Data is plotted for CAPN5 as initial velocity (μM/sec) versus substrate concentration.
Various concentrations of SNJ-1945 were incubated in a reaction with 50 μM EPLFAERK (a CAPN1 substrate) (SEQ ID NO: 22) and CAPN1 WT in activity. Addition of 1 μM SNJ-1945 slows the initial reaction rate by 100% (FIG. 15A). CAPN1 WT was incubated with and without SNJ-1945 at increasing concentrations of EPLFAERK substrate (SEQ ID NO: 22) (FIG. 15B). Various concentrations of SNJ-1945 were incubated in a reaction with CAPN5p.370-80 and CAPN5 WT in an activity buffer. Only after addition of 100 μM SNJ-1945 did the initial reaction rate slow to 100% (FIG. 15C). CAPN5 WT was incubated with and without SNJ-1945 at increasing concentrations of CAPN5 p.370-80 substrate (FIG. 15D).
First generation lead compound CAPN5 p.370-80 was modified using amide cyclization to generate a second generation competitive cyclic inhibitor. Various concentrations of Cyclic CAPN5 p.370-80 were incubated in a reaction with CAPN5p.370-80 and CAPN5 WT in an activity buffer. Addition of 10 μM Cyclic CAPN5 p.370-80 slows the initial reaction rate by 40% (FIG. 16A). CAPN5 WT was incubated with and without 10 μM Cyclic CAPN5 p.370-80 at increasing concentrations of CAPN5 p.370-80 substrate.

In assay [5] the target is T2, CAPN1 WT. The experiment in a line: FRET peptide proteolysis assay with CAPN1. To be noted: calpain activity buffer, 37° C. As for the experimental part:
as §3
CAPN5 specifically targets a peptide corresponding to its own autocatalytic site and not homologous regions in other calpains. […] Peptides corresponding to the homologous regions of the CAPN5 autoprotolysis site in other calpain family members were incubated with CAPN5 protease. […] Peptides tested in FIG. 14B were incubated with CAPN1. […] Kinetics data from the Michaelis-Menten and substrate inhibitions equations are shown in a table (FIG. 14D).

“Also recorded” adds a separate entry of the source.

T1 sequence (O15484 whole entry): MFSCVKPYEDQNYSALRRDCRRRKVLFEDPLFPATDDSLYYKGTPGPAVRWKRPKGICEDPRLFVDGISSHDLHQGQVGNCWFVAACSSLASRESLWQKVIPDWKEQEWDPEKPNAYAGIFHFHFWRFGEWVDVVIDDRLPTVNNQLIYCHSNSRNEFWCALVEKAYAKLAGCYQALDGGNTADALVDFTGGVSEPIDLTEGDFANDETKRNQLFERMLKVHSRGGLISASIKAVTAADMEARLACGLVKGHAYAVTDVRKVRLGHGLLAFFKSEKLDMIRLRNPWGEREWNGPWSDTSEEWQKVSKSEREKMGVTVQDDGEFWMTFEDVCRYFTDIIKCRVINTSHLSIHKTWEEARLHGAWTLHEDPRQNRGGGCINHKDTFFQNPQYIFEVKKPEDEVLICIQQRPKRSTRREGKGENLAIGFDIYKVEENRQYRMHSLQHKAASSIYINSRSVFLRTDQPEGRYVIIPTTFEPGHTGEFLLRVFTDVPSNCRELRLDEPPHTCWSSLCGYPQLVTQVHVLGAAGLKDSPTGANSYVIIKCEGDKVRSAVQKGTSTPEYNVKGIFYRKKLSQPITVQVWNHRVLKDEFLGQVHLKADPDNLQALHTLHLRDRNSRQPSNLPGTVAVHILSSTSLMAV
CAPN5-R243L, sequence (O15484 whole entry R243L): as the sequence (O15484 whole entry) above, with R243L counted along it

Regarding “RQNRGGGCINHKDTFFQNPQY (listed as Homo sapiens) [CAPN5-370-390]”, the “proteolysis of peptide substrate by CAPN5-WT (fluorescence)” value (“proteolysis … by CAPN5-WT (fluorescence)” for short) in assay [1] was “cleaved slower”. In addition, the “substrate inhibition of CAPN5 cleavage” value in assay [1] (peptide length series near autoproteolytic site) is “does not show cleavage substrate inhibition”. In addition, the “proteolysis of peptide substrate by CAPN5-R243L (fluorescence)” value (shortened to “proteolysis … by CAPN5-R243L (fluorescence)”) in assay [2] is “greatest fluorescent intensity”.
Regarding “CAPN5p.372-378: 7 amino acid peptide substrate near the CAPN5 autoproteolytic site (NRGGGCI)”, the “proteolysis … by CAPN5-WT (fluorescence)” value in assay [1] is “mild cleavage”.
As to KIEIVRKKPIFKKATV [PDGFB (155-170)], the “proteolysis … by CAPN5-R243L (fluorescence)” value in assay [2] is given as “greatest fluorescent intensity”.
In the case of `COCCOCCOC(=O)N[C@@H](CC(C)C)C(=O)N[C@@H](Cc1ccccc1)C(=O)C(=O)NC1CC1` [SNJ-1945], the “inhibition of CAPN1 (in words)” value in assay [3] is “inhibits CAPN1”. Besides, the “slowing of initial reaction rate of CAPN1” value in assay [3] (1 μM SNJ-1945, 50 μM EPLFAERK substrate) is given as 100%. In assay [4], the “inhibition of CAPN5 (in words)” value was “not a good inhibitor of CAPN5” and the “effect of increasing substrate concentration on inhibition of CAPN5” value is “overcomes the inhibition”. Further, the “slowing of initial reaction rate of CAPN5” value in assay [4] (100 μM SNJ-1945, CAPN5p.370-80 substrate) is reported as 100%.
On to “CAPN14 peptide: peptide of the CAPN14 region homologous to the CAPN5 autoproteolysis site (RGFNSGGSQPNAETFWTNPQFR; listed as Homo sapiens)”, for which, in assay [1], the “proteolysis … by CAPN5-WT (fluorescence)” value is “some proteolysis”.
With EPLFAERK [reference compound], in assay [1], the “proteolysis … by CAPN5-WT (fluorescence)” value was “not proteolyzed by CAPN5; also recorded: very limited proteolysis”. Further, the “proteolysis of peptide substrate by CAPN1 (fluorescence)” value in assay [5] was “specific to CAPN1; also recorded: high proteolysis”.
As for “RQNRGGGCINH (listed as Homo sapiens) [CAPN5-370-380]”, the “proteolysis … by CAPN5-WT (fluorescence)” value in assay [1] is “most sensitive to cleavage”; in assay [1] (listed as 11 aa peptide), “rapid and high cleavage”; in assay [1] (listed as CAPN5 (370-380)) it was “specific to CAPN5”; in assay [1] (listed as CAPN5 (p370-380)), “greatest fluorescent intensity”; in assay [1] (listed as CAPN5p370-380), “high proteolysis”. Moreover, the “proteolysis … by CAPN5-R243L (fluorescence)” value in assay [2] was “most sensitive to cleavage”; in assay [2] (listed as CAPN5 (370-380)), “greatest fluorescent intensity”. Also, the “proteolysis of peptide substrate by CAPN1 (fluorescence)” value is recorded as “not proteolyzed by CAPN1” in assay [5] (listed as CAPN5 (370-380)) and “very limited proteolysis” in assay [5] (listed as CAPN5p370-380).
Turning to “Cyclic CAPN5 p.370-80: CAPN5 p.370-80 modified by amide cyclization, second generation competitive cyclic inhibitor”, the “slowing of initial reaction rate of CAPN5” value in assay [4] (10 μM Cyclic CAPN5 p.370-80, CAPN5p.370-80 substrate) turned out to be 40%. In addition, the “effect of increasing substrate concentration on inhibition of CAPN5” value in assay [4] is “does not overcome inhibition”.

The record behind these values is patent US11981943B2, “Methods and composition for detecting CAPN5” (UNIVERSITY OF IOWA RESEARCH FOUNDATION, priority 2016, dated 2024).
